Experimental findings from PMC9879999, “A phosphoinositide hub connects CLE peptide signaling and polar auxin efflux regulation” (Nature Communications, 2023) are described below.

In this assay the target is T1, 6xHis-PBL34 (Arabidopsis thaliana, UniProt Q9LFP7 1-493).
T1 construct: also called 6x His-tagged PBL34 fusion protein; source: E. coli BL21(DE3)-VR2-pACYC-LamP, purified (HisPur cobalt resin); not shown: 6xHis, N-terminal, kept
T1 sequence (looked up): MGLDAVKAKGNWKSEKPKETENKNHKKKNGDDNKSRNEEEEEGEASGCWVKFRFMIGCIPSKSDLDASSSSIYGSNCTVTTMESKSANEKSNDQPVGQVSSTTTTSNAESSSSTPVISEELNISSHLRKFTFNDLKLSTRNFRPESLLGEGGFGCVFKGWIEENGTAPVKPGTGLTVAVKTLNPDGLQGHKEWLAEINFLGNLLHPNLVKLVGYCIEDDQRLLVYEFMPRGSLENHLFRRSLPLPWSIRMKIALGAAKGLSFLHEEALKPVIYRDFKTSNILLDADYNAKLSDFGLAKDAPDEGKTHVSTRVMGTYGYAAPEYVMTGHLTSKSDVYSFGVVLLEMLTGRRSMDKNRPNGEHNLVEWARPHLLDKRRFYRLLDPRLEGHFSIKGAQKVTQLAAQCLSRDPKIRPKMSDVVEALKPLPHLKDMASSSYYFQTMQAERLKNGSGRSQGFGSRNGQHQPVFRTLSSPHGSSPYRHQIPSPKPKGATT
Nature of the assay: pull-down; in vitro pulldown with amylose beads; MBP fusion protein as bait, 6xHis-PBL34 detected by Western blot. The settings on record: both partners purified.

B1: 6xHis-MBP-BRX (natural protein, Arabidopsis thaliana, UniProt Q17TI5 1-344, looked up)
chain: MFSCIACTKADGGEEVEHGARGGTTPNTKEAVKSLTIQIKDMALKFSGAYKQCKPCTGSSSSPLKKGHRSFPDYDNASEGVPYPFMGGSAGSTPAWDFTNSSHHPAGRLESKFTSIYGNDRESISAQSCDVVLDDDGPKEWMAQVEPGVHITFASLPTGGNDLKRIRFSREMFDKWQAQRWWGENYDKIVELYNVQRFNRQALQTPARSDDQSQRDSTYSKMDSARESKDWTPRHNFRPPGSVPHHFYGGSSNYGPGSYHGGPPMDAARTTTSSRDDPPSMSNASEMQAEWIEEDEPGVYITIRQLSDGTRELRRVRFSRERFGEVHAKTWWEQNRERIQTQYL
notes: source: E. coli BL21(DE3) Rosetta pLysS, purified (HisPur cobalt resin); not shown: MBP, N-terminal, kept
For the molecule B1, the binding result was “binds”.
